Target: TFEB (rhTFEB) (human, UniProt P19484 1-476)
Experiment: EMSA; EMSA kit with SYBR green (Thermo Fisher), 5 pmol annealed probe, 200 ng rhTFEB; buffer, salt, pH and temperature not stated
Conditions: protein: commercial; chain copies: 2

TFEB (rhTFEB), sequence (P19484 whole entry): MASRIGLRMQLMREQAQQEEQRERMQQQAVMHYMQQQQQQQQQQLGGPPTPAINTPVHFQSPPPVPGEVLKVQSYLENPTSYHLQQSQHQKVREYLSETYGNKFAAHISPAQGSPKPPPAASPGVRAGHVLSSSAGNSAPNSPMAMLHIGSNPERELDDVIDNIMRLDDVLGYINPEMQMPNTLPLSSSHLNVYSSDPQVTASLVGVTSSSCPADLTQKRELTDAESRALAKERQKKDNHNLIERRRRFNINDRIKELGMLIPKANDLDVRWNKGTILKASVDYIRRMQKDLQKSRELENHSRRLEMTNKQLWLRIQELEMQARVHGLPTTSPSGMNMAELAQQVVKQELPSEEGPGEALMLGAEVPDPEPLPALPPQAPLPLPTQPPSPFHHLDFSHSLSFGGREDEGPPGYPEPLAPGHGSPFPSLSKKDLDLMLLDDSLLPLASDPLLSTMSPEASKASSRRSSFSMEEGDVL

B1: NPC2 CLEAR probe (positive control) (dsDNA)
DNA 1: GCGCGGGCGGGCCTCAGCTGTGGTTACTGGTGACAGGTCGCCTGA
DNA 2: TCAGGCGACCTGTCACCAGTAACCACAGCTGAGGCCCGCCCGCGC
B1: binds.
